Measurements as given in US20140363438A1, “NEUREGULIN ANTIBODIES AND USES THEREOF” (Genentech, Inc., priority 2011, published 2014).

Key:
H441 tumor model = assay: H441 xenograft after chemotherapy: tumor response and NRG1 expression in residual tumor cells (qPCR); format: in vivo, human
Description: (§1) RNA was isolated using the Qiagen RNeasy Micro Kit, Complementary DNA was prepared from total RNA using ABI high fidelity kit according to manufacturer's instructions. NRG1alpha, NRG1beta, HER3, HER4 expression was determined using ABI gene specific primers/probe by quantitative real time PCR (ABI 7500). Gene expression was normalized using GAPDH or RAB14 house keeping genes.
(§2) Tumor cells (10-20 million) were transplanted into right flank of athymic nude mice. When tumor size reached ˜200 mm^3, the mice were divided into different treatment groups. Mice were then treated with either vehicle or chemotherapy (paclitaxel, i.v.+cisplatin, i.p.) for the initial studies. The chemotherapy dosing regimen was paclitaxel 20 mg/kg i.v. every other day for 5 doses and cisplatin 5 mg/kg i.p. on days 1 and 7 for the Calu3 model and days 1 and 14 for the H441 model. Regressed tumors and time matched vehicle controls were collected at least 1 week after the last dose of chemo. Tumors were dissociated using dispase/collagenase and samples were FACS sorted to collect the GFP positive tumor cells. For the NRG1 knockdown studies, the treatment groups were: sucrose, doxycycline (dox), chemotherapy+sucrose, and chemotherapy+doxycycline. […]
(§3) The expression of NRG1 in TRICs isolated from the Calu3 and H441 xenograft models was analyzed. […]

Calu3 tumor model = assay: Calu3 xenograft after chemotherapy: tumor response and NRG1 expression in residual tumor cells (qPCR); format: in vivo, human
Description: as §1, §2, §3

[1] = biological target: T1, Recombinant human NRG1-β ECD domain (R&D Systems, cat#377-HB/CF) (human, UniProt Q02297-11 121-191, limits assumed); assay: SPR (BIAcore T100), IgG captured by anti-human Fc, NRG1β injected; sensorgram shown for 6.25 nM NRG-beta
T1 construct: also called NRG1-beta; HRG1β
T1 sequence: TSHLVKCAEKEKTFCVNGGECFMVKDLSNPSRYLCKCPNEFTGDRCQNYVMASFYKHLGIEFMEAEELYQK
Description: (§4) Binding affinities of anti-NRG1 IgGs were measured by Surface Plasmon Resonance (SRP) using a BIAcore™-T100 instrument. Anti-NRG1 human IgGs were captured by mouse anti-human Fc antibody (GE Healthcare, cat# BR-1008-39) coated on CM5 biosensor chips to achieve approximately 1000 response units (RU). […] Association rates (kₒₙ) and dissociation rates (koff) were calculated using a simple one-to-one Langmuir binding model (BIAcore Evaluation Software version 3.2). The equilibrium dissociation constant (KD) was calculated as the ratio koff/kₒₙ.

[2] = biological target: T2, Recombinant human NRG1-α EGF domain (R&D Systems, cat#296-HR/CF) (human, UniProt Q02297 177-241); assay: cell-based or functional assay
T2 sequence: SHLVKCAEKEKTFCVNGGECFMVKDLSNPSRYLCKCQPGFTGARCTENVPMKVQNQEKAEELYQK

[3] = biological target: T3, Recombinant human Neuregulin 1-beta (rhNRG1b, Genentech) (human, UniProt Q02297 1-640); assay: cell-based or functional assay
T3 sequence: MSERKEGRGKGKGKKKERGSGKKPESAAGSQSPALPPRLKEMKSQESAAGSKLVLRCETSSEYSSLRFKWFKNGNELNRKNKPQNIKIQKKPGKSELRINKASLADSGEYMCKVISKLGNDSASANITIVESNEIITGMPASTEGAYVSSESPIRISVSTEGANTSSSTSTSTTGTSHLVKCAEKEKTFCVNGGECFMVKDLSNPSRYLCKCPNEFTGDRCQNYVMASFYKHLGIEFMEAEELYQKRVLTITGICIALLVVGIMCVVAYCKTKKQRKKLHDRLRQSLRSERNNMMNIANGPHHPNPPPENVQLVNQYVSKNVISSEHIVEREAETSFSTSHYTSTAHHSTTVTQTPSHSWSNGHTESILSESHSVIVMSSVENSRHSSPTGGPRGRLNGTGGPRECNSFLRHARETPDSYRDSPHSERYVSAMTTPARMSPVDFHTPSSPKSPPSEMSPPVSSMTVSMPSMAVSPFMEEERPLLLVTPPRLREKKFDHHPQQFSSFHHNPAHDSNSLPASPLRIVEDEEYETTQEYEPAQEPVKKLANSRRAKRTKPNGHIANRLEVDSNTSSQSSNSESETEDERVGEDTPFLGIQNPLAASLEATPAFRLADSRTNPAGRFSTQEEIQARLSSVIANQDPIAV

[4] = biological target: T2, Recombinant human NRG1-α EGF domain …; assay: SPR (BIAcore T100), IgG captured by anti-human Fc, NRG1α injected; sensorgram shown for 6.25 nM NRG-alpha
Description: as §4

EGF = EGF (UniProt P01133 971-1023); assay: ELISA
Betacellulin (BTC) = biological target: T4, Betacellulin (BTC) (UniProt P35070 32-111); assay: ELISA
T4 sequence (looked up): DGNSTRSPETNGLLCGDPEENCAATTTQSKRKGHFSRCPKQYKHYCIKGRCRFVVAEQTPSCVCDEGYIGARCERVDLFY

HB-EGF = HB-EGF (UniProt Q99075 63-148, limits assumed); assay: ELISA
[5] = biological target: T2, Recombinant human NRG1-α EGF domain …; assay: SPR (BIAcore T100), IgG captured by anti-human Fc, NRG1α injected; table under the head '250 nM NRG1-alpha'
Description: as §4

[6] = biological target: T1, Recombinant human NRG1-β ECD domain …; assay: SPR (BIAcore T100), IgG captured by anti-human Fc; table under the head '125nM NRG-beta'; this table is identical to that of FIG. 9 (NRG1-alpha) and does not fit the slow dissociation of the sensorgrams above it
[7] = biological target: T1, Recombinant human NRG1-β ECD domain …; assay: SPR (BIAcore T100), IgG captured by anti-human Fc, NRG1β (HRG-beta) injected; sensorgram shown for 7.8 nM (sheet: '7.8 mnM HRG beta')
Description: as §4

[8] = biological target: T2, Recombinant human NRG1-α EGF domain …; assay: SPR (BIAcore T100), IgG captured by anti-human Fc, NRG1α (HRG-alpha) injected; sensorgram shown for 7.8 nM (sheet: '7.8 mnM HRG alpha')
Description: as §4

Chain of EGF (P01133 971-1023 limits assumed): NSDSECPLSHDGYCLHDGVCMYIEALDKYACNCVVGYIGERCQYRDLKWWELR
Chain of HB-EGF (Q99075 63-148 limits assumed): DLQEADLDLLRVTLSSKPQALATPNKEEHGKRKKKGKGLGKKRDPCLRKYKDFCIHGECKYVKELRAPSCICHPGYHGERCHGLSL

CCC1=C[C@@H]2CN(C1)Cc1c([nH]c3ccccc13)[C@@](C(=O)OC)(c1cc3c(cc1OC)N(C)[C@H]1[C@@](O)(C(=O)OC)[C@H](OC(C)=O)[C@]4(CC)C=CCN5CC[C@]31[C@@H]54)C2 [vinorelbine]
tumor response to treatment (H441 tumor model): continued to grow
tumor response to treatment (Calu3 tumor model): continued to grow

Nc1ccn([C@@H]2O[C@H](CO)[C@@H](O)C2(F)F)c(=O)n1 [gemcitabine]
tumor response to treatment (H441 tumor model): tumor regression
tumor response to treatment (Calu3 tumor model): tumor regression

B1: anti-NRG1 antibody 526.90.28 (antibody, human IgG1, kappa, V domains shown)
VH: EVQLVESGGGLVQPGGSLRLSCAASGFTFSDIAMSWVRQAPGKGLEWVSWIYPSGGNTYYADSVKGRFTISADTSKNTAYLQMNSLRAEDTAVYYCARSYILSQKSATWAFDYWGQGTLVTVSS
VL: DIQMTQSPSSLSASVGDRVTITCRASQSISSYLAWYQQKPGKAPKLLIYGASSRASGVPSRFSGSGSGTDFTLTISSLQPEDFATYYCQQSYSTPITFGQGTKVEIKR
notes: also called YW526.90.28
Kd [1]: 1.09 nM
koff [1]: 0.000367 s⁻¹
kon [1]: 337000 M⁻¹ s⁻¹
IC50 of inhibition of Her3 activation (phosphorylation), KIRA on MCF-7 cells, 0.5 nM rhNRG1a [2]: 13.9 nM
IC50 of inhibition of Her3 activation (phosphorylation), KIRA on MCF-7 cells, 0.2 nM rhNRG1b [3]: 1.44 nM
Kd [4]: 0.587 nM
koff [4]: 0.000595 s⁻¹
kon [4]: 1.01e+06 M⁻¹ s⁻¹
binding result (EGF): no binding
binding result (Betacellulin (BTC)): no binding
binding result (HB-EGF): no binding

B2: anti-NRG1 antibody 538.24 (antibody, human IgG1, V domains shown)
VH: EVQLVESGGGLVQPGGSLRLSCAASGFTFSGTWIHWVRQAPGKGLEWVAAITPADGSTNYADSVKGRFTISADTSKNTAYLQMNSLRAEDTAVYYCATYMFAMDYWGQGTLVTVSS
VL: DIQMTQSPSSLSASVGDRVTITCRASQDVSTAVAWYQQKPGKAPKLLIYSASFLYSGVPSRFSGSGSGTDFTLTISSLQPEDFATYYCQQSYTTPPTFGQGTKVEIKR
notes: also called YW538.24
Kd [5]: > 400 nM

B3: anti-NRG1 antibody 538.24.17 (antibody, human IgG1, V domains shown)
VH: EVQLVESGGGLVQPGGSLRLSCAASGFTFSGTWIHWVRQAPGKGLEWVAAITPADGSTNYADSVKGRFTISADTSKNTAYLQMNSLRAEDTAVYYCATYMFAMDYWGQGTLVTVSS
VL: DIQMTQSPSSLSASVGDRVTITCRASQDVSTAVAWYQQKPGKAPKLLIYSASFLYSGVPSRFSGSGSGTDFTLTISSLQPEDFATYYCQQSYWMPPTFGQGTKVEIKR
notes: also called YW538.24.17
Kd [6]: 5.18 nM
koff [6]: 0.0081 s⁻¹
kon [6]: 1.56e+06 M⁻¹ s⁻¹
Kd [5]: 5.18 nM
koff [5]: 0.0081 s⁻¹
kon [5]: 1.56e+06 M⁻¹ s⁻¹

B4: anti-NRG1 antibody 538.24.36 (antibody, human IgG1, V domains shown)
VH: EVQLVESGGGLVQPGGSLRLSCAASGFTFSGTWIHWVRQAPGKGLEWVAAITPADGSTNYADSVKGRFTISADTSKNTAYLQMNSLRAEDTAVYYCATYMFAMDYWGQGTLVTVSS
VL: DIQMTQSPSSLSASVGDRVTITCRASQNVDRSLAWYQQKPGKAPKLLIYAASSLESGVPSRFSGSGSGTDFTLTISSLQPEDFATYYCQQHYTLPFTFGQGTKVEIKR
notes: also called YW538.24.36
Kd [6]: 13.2 nM
koff [6]: 0.0252 s⁻¹
kon [6]: 1.91e+06 M⁻¹ s⁻¹
Kd [5]: 13.2 nM
koff [5]: 0.0252 s⁻¹
kon [5]: 1.91e+06 M⁻¹ s⁻¹

B5: anti-NRG1 antibody 538.24.94 (antibody, human IgG1, V domains shown)
VH: EVQLVESGGGLVQPGGSLRLSCAASGFTFSGTWIHWVRQAPGKGLEWVAAITPADGSTNYADSVKGRFTISADTSKNTAYLQMNSLRAEDTAVYYCATYMFAMDYWGQGTLVTVSS
VL: DIQMTQSPSSLSASVGDRVTITCRASQDVKKSLAWYQQKPGKAPKLLIYGASNLESGVPSRFSGSGSGTDFTLTISSLQPEDFATYYCQQHYTLPLTFGQGTKVEIKR
notes: also called YW538.24.94
Kd [7]: 0.109 nM
koff [7]: 7.34e-05 s⁻¹
kon [7]: 674000 M⁻¹ s⁻¹
Kd [8]: 1.74 nM
koff [8]: 0.00674 s⁻¹
kon [8]: 3.87e+06 M⁻¹ s⁻¹
Kd [6]: 1.96 nM
kon [6]: 480000 M⁻¹ s⁻¹
